{"source": "IntAct's records for PubMed 21889351", "parents": {"B1": {"name": "Programmed cell death 6-interacting protein (Homo sapiens), Q8WUM4 (parent)", "chain": "MATFISVQLKKTSEVDLAKPLVKFIQQTYPSGGEEQAQYCRAAEELSKLRRAAVGRPLDKHEGALETLLRYYDQICSIEPKFPFSENQICLTFTWKDAFDKGSLFGGSVKLALASLGYEKSCVLFNCAALASQIAAEQNLDNDEGLKIAAKHYQFASGAFLHIKETVLSALSREPTVDISPDTVGTLSLIMLAQAQEVFFLKATRDKMKDAIIAKLANQAADYFGDAFKQCQYKDTLPKEVFPVLAAKHCIMQANAEYHQSILAKQQKKFGEEIARLQHAAELIKTVASRYDEYVNVKDFSDKINRALAAAKKDNDFIYHDRVPDLKDLDPIGKATLVKSTPVNVPISQKFTDLFEKMVPVSVQQSLAAYNQRKADLVNRSIAQMREATTLANGVLASLNLPAAIEDVSGDTVPQSILTKSRSVIEQGGIQTVDQLIKELPELLQRNREILDESLRLLDEEEATDNDLRAKFKERWQRTPSNELYKPLRAEGTNFRTVLDKAVQADGQVKECYQSHRDTIVLLCKPEPELNAAIPSANPAKTMQGSEVVNVLKSLLSNLDEVKKEREGLENDLKSVNFDMTSKFLTALAQDGVINEEALSVTELDRVYGGLTTKVQESLKKQEGLLKNIQVSHQEFSKMKQSNNEANLREEVLKNLATAYDNFVELVANLKEGTKFYNELTEILVRFQNKCSDIVFARKTERDELLKDLQQSIAREPSAPSIPTPAYQSSPAGGHAPTPPTPAPRTMPPTKPQPPARPPPPVLPANRAPSATAPSPVGAGTAAPAPSQTPGSAPPPQAQGPPYPTYPGYPGYCQMPMPMGYNPYAYGQYNMPYPPVYHQSPGQAPYPGPQQPSYPFPQPPQQSYYPQQ", "partner": "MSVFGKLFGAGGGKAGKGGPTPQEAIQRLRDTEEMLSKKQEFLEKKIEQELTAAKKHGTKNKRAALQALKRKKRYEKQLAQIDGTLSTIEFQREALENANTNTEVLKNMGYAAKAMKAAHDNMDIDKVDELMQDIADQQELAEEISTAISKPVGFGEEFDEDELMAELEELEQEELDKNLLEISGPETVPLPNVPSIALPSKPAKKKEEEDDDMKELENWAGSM"}}, "data": [{"variants_of": "B1", "conditions": "with chm4b_human CHMP4B", "values": [{"variant": "I212D", "effect of a mutation on the interaction": "disrupting interaction"}]}]}
